One data set deals with T1, OCT3 (Homo sapiens, UniProt O75751).
T1 construct: Koepsell and Gorbulev (University of Würzburg); host or cells: HEK293
T1 sequence (O75751 1-556): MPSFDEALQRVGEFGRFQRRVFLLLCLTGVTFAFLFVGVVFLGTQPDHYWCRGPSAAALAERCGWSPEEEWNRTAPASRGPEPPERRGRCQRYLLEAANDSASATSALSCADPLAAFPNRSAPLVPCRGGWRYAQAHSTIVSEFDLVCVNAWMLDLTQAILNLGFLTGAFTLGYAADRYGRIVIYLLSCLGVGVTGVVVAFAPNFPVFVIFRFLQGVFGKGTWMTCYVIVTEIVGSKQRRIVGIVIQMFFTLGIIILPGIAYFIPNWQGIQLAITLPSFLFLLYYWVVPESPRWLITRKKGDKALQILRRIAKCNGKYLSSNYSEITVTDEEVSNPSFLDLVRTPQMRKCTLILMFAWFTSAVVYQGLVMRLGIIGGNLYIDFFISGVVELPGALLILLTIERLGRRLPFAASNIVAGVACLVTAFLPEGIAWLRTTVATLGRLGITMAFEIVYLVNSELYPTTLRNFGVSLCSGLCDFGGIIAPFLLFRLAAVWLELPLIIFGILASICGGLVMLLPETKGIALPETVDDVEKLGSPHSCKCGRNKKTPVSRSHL
Nature of the data set: Screening of cellular uptake at 1 µM, OCT3-overexpressing HEK293 cells over empty vector control cells. The settings on record: 2 min. It is filed as in vitro ADME. From the text: (§1) Koepsell and Gorbulev (University of Würzburg, Germany).
(§2) Eighteen psychostimulants and hallucinogens were initially screened for their potential to be substrates for different polyspecific OCTs and high-affinity monoamine neurotransmitter transporters (Figure 3), as well as for the efflux transporter MATE2-K (Supplementary Figure S1).

For data set [1] the following is noted: cited from earlier work.
The target of a further data set is T2, OCT2 (Homo sapiens, UniProt O15244).
T2 sequence (O15244 1-555 S270A): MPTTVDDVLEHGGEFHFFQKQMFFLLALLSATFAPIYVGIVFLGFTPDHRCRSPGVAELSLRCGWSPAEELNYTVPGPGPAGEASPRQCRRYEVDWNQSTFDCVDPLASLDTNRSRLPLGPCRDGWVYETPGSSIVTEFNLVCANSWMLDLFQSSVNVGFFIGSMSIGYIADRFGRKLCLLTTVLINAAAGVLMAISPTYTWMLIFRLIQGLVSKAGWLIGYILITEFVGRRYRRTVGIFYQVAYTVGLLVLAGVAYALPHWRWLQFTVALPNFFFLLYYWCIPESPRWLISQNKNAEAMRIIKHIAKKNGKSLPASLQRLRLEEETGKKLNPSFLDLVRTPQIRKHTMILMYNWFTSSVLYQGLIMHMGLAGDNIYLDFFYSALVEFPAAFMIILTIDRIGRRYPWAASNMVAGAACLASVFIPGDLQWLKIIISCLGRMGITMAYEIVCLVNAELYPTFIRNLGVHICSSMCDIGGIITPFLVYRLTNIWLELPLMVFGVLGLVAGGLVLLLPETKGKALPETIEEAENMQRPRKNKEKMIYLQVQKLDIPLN
In words: Screening of cellular uptake at 1 µM, OCT2-overexpressing HEK293 cells over empty vector control cells. The settings on record: 2 min.
Description: as §1, §2

The target of the next data set is T3, wild-type OCT2 (Homo sapiens, UniProt O15244).
T3 sequence (O15244 1-555 S270A): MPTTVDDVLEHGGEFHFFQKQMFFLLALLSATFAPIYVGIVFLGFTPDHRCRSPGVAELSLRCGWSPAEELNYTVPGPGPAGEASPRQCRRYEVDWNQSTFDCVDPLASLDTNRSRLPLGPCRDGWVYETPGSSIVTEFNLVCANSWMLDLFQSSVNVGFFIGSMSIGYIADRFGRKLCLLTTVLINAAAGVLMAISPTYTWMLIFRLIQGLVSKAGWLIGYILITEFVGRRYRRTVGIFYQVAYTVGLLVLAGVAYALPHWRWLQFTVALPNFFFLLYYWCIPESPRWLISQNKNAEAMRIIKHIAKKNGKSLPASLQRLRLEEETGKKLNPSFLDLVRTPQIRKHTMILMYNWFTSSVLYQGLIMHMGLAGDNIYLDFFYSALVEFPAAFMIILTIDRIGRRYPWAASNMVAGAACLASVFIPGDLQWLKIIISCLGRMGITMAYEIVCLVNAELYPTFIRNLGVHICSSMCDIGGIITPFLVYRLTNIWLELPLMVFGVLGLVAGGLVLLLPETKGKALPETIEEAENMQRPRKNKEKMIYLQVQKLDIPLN
In words: Concentration-dependent transport by wild-type OCT2 in HEK293 cells. Conditions: for vmax: OCT2 WT.

The target of a further data set is T4, OCT2 variant A270S (Homo sapiens, UniProt O15244).
T4 sequence (O15244 1-555): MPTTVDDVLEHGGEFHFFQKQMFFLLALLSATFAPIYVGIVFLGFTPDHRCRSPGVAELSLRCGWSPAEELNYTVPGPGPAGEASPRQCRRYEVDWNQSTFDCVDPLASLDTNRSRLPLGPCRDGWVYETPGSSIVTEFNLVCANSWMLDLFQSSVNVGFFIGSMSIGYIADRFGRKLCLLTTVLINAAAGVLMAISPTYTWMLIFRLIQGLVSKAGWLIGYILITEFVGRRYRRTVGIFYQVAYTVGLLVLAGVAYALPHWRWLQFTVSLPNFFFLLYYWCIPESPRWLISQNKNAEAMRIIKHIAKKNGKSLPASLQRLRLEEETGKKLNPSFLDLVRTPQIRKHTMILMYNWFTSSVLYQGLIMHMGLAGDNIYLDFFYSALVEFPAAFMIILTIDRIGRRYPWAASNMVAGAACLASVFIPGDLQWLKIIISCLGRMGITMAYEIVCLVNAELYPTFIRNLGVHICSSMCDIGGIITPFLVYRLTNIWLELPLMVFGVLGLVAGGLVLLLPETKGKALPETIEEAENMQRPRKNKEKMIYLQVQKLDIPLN
Nature of the data set: Concentration-dependent transport by OCT2 variant A270S in HEK293 cells. The settings on record: OCT2 A270S.

The next data set has as its target SERT (Homo sapiens, UniProt P31645). In words: Screening of cellular uptake at 1 µM, SERT-overexpressing HEK293 cells over empty vector control cells. It is filed as in vitro ADME. Conditions: 2 min.
Substrate in data set [2]: COc1cc(CCN)cc(OC)c1OC
In words: not read. The settings on record: other: OCT1*1 (WT); net transport, 2 min; pH 7.4; 37.0 °C.

Substrate in data set [3]: CN(C)CCc1c[nH]c2ccccc12
In words: not read. The settings on record: pH 7.4.

Substrate in data set [4]: CN[C@@H](C)[C@H](O)c1ccccc1
In words: not read. The settings on record: pH 7.4, 37.0 °C.

Substrate in data set [5]: CNC(C)Cc1ccc(OC)cc1
Nature of the data set: not read. The settings on record: pH 7.4.

Substrate in data set [6]: CN[C@@H](C)Cc1ccccc1
Nature of the data set: not read. The settings on record: other: OCT2 A270S; pH 7.4; 37.0 °C.

SERT, sequence (P31645 whole entry): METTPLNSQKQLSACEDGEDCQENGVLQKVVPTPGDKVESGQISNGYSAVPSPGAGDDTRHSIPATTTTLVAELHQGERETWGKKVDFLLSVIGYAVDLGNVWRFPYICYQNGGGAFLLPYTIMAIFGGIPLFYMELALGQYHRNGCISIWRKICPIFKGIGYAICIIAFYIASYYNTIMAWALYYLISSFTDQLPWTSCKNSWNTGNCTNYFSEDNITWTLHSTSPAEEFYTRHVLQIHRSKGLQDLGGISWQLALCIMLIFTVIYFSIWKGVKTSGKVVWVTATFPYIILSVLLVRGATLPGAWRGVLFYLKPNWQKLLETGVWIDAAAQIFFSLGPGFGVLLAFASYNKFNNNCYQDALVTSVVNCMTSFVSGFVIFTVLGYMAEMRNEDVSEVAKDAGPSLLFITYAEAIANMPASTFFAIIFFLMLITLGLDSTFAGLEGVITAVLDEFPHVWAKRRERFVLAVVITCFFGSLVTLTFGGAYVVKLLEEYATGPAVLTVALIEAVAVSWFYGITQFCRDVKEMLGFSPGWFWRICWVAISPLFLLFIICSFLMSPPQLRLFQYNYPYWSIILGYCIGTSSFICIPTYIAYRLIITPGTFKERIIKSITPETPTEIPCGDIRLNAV

For the molecule `CC(N)Cc1ccccc1` (stereo not shown) [Amphetamine], the “ratio of uptake in transporter-transfected cells over empty vector control cells” value (from here on “ratio of uptake”) on OCT3 was “does not appear to be a substrate”.
Consider `C[C@H](N)C(=O)c1ccccc1` [Cathinone], for which the “renal elimination (unchanged in urine)” value in data set [1] (ref Kalix and Braenden, 1985, Toennes and Kauert, 2002) is on record as 2–7%.
As for `CN(C)CCc1c[nH]c2ccccc12` [DMT, dimethyltryptamine], the “ratio of uptake” value on OCT2 was “approximately 3 fold”. Further, the “excreted unchanged in urine” value in data set [1] (following intramuscular administration, ref Sitaram et al., 1987, Barker, 2018) was 0.16%.
On to `CN[C@@H](C)Cc1ccccc1` [Methylamphetamine], for which the vmax was 70.7 (± 8.3) pmol × mg protein^-1 × min^-1 on wild-type OCT2 (listed as Methamphetamine), 70.7 ± 8.3 pmol × mg protein^-1 × min^-1 at wild-type OCT2 (listed as methamphetamine) and 34.5 (± 8.5) pmol × mg protein^-1 × min^-1 at OCT2 variant A270S. Besides, the Km at 2 min at wild-type OCT2 (human, pH 7.4) was 11.9 µM. Also, at OCT2, the “ratio of uptake” value is given as 4- to 6 fold. Moreover, the renal elimination in data set [1] (ref Toennes and Kauert, 2002, www.dosing.de and www.drugbank.ca) was 30–54%.
As to `COc1ccc(CC(C)N)cc1` (stereo not shown) [PMA, para-methoxyamphetamine], on SERT, the “ratio of uptake” value is “slightly higher (albeit still low) uptake”.
On to `CNC(C)Cc1ccc(OC)cc1` (stereo not shown) [PMMA, para-methoxymethamphetamine], for which the “ratio of uptake” value at SERT is recorded as “slightly higher (albeit still low) uptake”; at OCT2, “approximately 3 fold”.

B1: OCT1*1 (WT) (Homo sapiens) (protein)
chain: MPTVDDILEQVGESGWFQKQAFLILCLLSAAFAPICVGIVFLGFTPDHHCQSPGVAELSQRCGWSPAEELNYTVPGLGPAGEAFLGQCRRYEVDWNQSALSCVDPLASLATNRSHLPLGPCQDGWVYDTPGSSIVTEFNLVCADSWKLDLFQSCLNAGFLFGSLGVGYFADRFGRKLCLLGTVLVNAVSGVLMAFSPNYMSMLLFRLLQGLVSKGNWMAGYTLITEFVGSGSRRTVAIMYQMAFTVGLVALTGLAYALPHWRWLQLAVSLPTFLFLLYYWCVPESPRWLLSQKRNTEAIKIMDHIAQKNGKLPPADLKMLSLEEDVTEKLSPSFADLFRTPRLRKRTFILMYLWFTDSVLYQGLILHMGATSGNLYLDFLYSALVEIPGAFIALITIDRVGRIYPMAMSNLLAGAACLVMIFISPDLHWLNIIIMCVGRMGITIAIQMICLVNAELYPTFVRNLGVMVCSSLCDIGGIITPFIVFRLREVWQALPLILFAVLGLLAAGVTLLLPETKGVALPETMKDAENLGRKAKPKENTIYLKVQTSEPSGT
Consider B1, for which, in the data set “not read [2]”, the Km is reported as 24.3 (±6.3) µM and the Vmax stood at 0.000642 µmol/min/mg.

B2: wild-type OCT2 (Homo sapiens; S270A) (protein)
chain: MPTTVDDVLEHGGEFHFFQKQMFFLLALLSATFAPIYVGIVFLGFTPDHRCRSPGVAELSLRCGWSPAEELNYTVPGPGPAGEASPRQCRRYEVDWNQSTFDCVDPLASLDTNRSRLPLGPCRDGWVYETPGSSIVTEFNLVCANSWMLDLFQSSVNVGFFIGSMSIGYIADRFGRKLCLLTTVLINAAAGVLMAISPTYTWMLIFRLIQGLVSKAGWLIGYILITEFVGRRYRRTVGIFYQVAYTVGLLVLAGVAYALPHWRWLQFTVALPNFFFLLYYWCIPESPRWLISQNKNAEAMRIIKHIAKKNGKSLPASLQRLRLEEETGKKLNPSFLDLVRTPQIRKHTMILMYNWFTSSVLYQGLIMHMGLAGDNIYLDFFYSALVEFPAAFMIILTIDRIGRRYPWAASNMVAGAACLASVFIPGDLQWLKIIISCLGRMGITMAYEIVCLVNAELYPTFIRNLGVHICSSMCDIGGIITPFLVYRLTNIWLELPLMVFGVLGLVAGGLVLLLPETKGKALPETIEEAENMQRPRKNKEKMIYLQVQKLDIPLN
As to B2, the results for the Km in the data set “not read [3]” (other: OCT2 WT), in the data set “not read [4]” (other: OCT2 WT) and in “not read [5]” (other: OCT2 WT) were 13.0 (± 3.7) μM, 15.7 (± 4.6) μM and 7.9 (± 2.6) μM, respectively. In addition, the Vmax in “not read [3]” (other: OCT2 WT) is given as 296.7 (± 23.3) pmol × mg protein^-1 × min^-1; in “not read [4]” (other: OCT2 WT), 417.8 (± 35.6) pmol × mg protein^-1 × min^-1; in the data set “not read [5]” (other: OCT2 WT), 225.1 (± 19.3) pmol × mg protein^-1 × min^-1.

B3: OCT2 variant A270S (Homo sapiens) (protein)
chain: MPTTVDDVLEHGGEFHFFQKQMFFLLALLSATFAPIYVGIVFLGFTPDHRCRSPGVAELSLRCGWSPAEELNYTVPGPGPAGEASPRQCRRYEVDWNQSTFDCVDPLASLDTNRSRLPLGPCRDGWVYETPGSSIVTEFNLVCANSWMLDLFQSSVNVGFFIGSMSIGYIADRFGRKLCLLTTVLINAAAGVLMAISPTYTWMLIFRLIQGLVSKAGWLIGYILITEFVGRRYRRTVGIFYQVAYTVGLLVLAGVAYALPHWRWLQFTVSLPNFFFLLYYWCIPESPRWLISQNKNAEAMRIIKHIAKKNGKSLPASLQRLRLEEETGKKLNPSFLDLVRTPQIRKHTMILMYNWFTSSVLYQGLIMHMGLAGDNIYLDFFYSALVEFPAAFMIILTIDRIGRRYPWAASNMVAGAACLASVFIPGDLQWLKIIISCLGRMGITMAYEIVCLVNAELYPTFIRNLGVHICSSMCDIGGIITPFLVYRLTNIWLELPLMVFGVLGLVAGGLVLLLPETKGKALPETIEEAENMQRPRKNKEKMIYLQVQKLDIPLN
For B3, the Km in “not read [3]” (other: OCT2 A270S) is 14.2 (± 7.9) μM; in “not read [4]” (other: OCT2 A270S) it was 14.7 (± 4.1) μM; in “not read [6]”, 24.3 (± 17.0) μM; in the data set “not read [5]” (other: OCT2 A270S) it was 14.4 (± 8.6) μM. Further, the Vmax in “not read [3]” (other: OCT2 A270S) is given as 164.2 (± 25.9) pmol × mg protein^-1 × min^-1; in “not read [4]” (other: OCT2 A270S), 229.5 (± 18.2) pmol × mg protein^-1 × min^-1; in the data set “not read [5]” (other: OCT2 A270S), 172.1 (± 31.5) pmol × mg protein^-1 × min^-1.
